# According to patent publication US7419813B2, “Fructosyl peptide oxidase” (Kikkoman Corporation, priority 2001, dated 2008):
# Legend:
# [1] = Optimum temperature range of the enzyme reaction; assay type: biochemical; settings: purified oxidase
# Protocol: For example, a reaction solution having the same composition as that of a reaction solution used for the activity assay described later is used to determine activities of the enzyme at various temperatures, thereby determining a suitable temperature range for action. The oxidases of the invention may, for example, have a suitable temperature range of 20-50° C., preferably 25-45° C. For example, a reaction solution having the same composition as that of a reaction solution for the activity assay described later is used to determine activities of the enzyme at various temperatures, thereby determining a suitable temperature range. The oxidases of the invention that have less action on ε-fructosyl lysine may, for example, have a suitable temperature range of 20-50° C., preferably 25-40° C. The activity of the inventive oxidase was assayed at different temperatures using reactions which consisted of the same compositions as those used in the above-described activity assay.
# [2] = Reaction with products obtained by digesting α-glycated hexapeptide with protease (96-well plate, 510 nm); assay type: biochemical; settings: purified enzyme; compared to 100% activity for fructosyl glycine; monitored at 510 nm for 70 minutes
# Description: Glycated hemoglobin (HbA1c) may be treated with endoproteinase Glu-C to liberate α-glycated hexapeptide (fructosyl Val-His-Leu-Thr-Pro-Glu) from the glycated hemoglobin β-chain (Clin. Chem., 43; 10 1944-1951, 1997). Fructosyl Val-His-Leu-Thr-Pro-Glu (available from PEPTIDE INSTITUTE, INC), which is the same substance as the α-glycated hexapeptide, was used in the following experiment.
# α-glycated hexapeptide (fructosyl Val-His-Leu-Thr-Pro-Glu, MW=856, available from PEPTIDE INSTITUTE, INC) (3.434 mg) was dissolved in 0.2 ml of water.
# Molsin (15 mg, available from Kikkoman Corp.) was dissolved in 0.2 ml of buffer (10 mM acetate buffer, pH 3.0)
# A (100 μl), B (5 μl) and C (5 μl) were mixed in a microtube and incubated at 37° C. for 17 hours. The reaction solution was then filtered using Microcon 10 (available from Amicon) to remove protease.
# Developer solution consisted of the following materials:
# • (a) Enzyme purified from Achaetomiella virescens ATCC 32393 • (b) Enzyme purified from Eupenicillium terrenum ATCC 18547 • (c) Enzyme purified from Coniochaeta sp. […]
# Reaction substrate (D: a, b) (20 μl), developer solution (E) (20 μl) and the inventive oxidase (F: a-d) (10 μl) were mixed in 96-well assay plates for reaction. Each plate was monitored at 510 nm using a plate reader (Immuno Mini NJ-2300, available from Nalge Nunc International K. K.) for 70 minutes. […]
# [3] = Optimum pH of the enzyme reaction; assay type: biochemical; settings: purified oxidase, 30° C.; for optimum pH (range): relative activities of 70% or higher
# Protocol: For example, 200 mM acetic acid buffer (pH 3.0-6.0), 200 mM MES-NaOH (pH 6.0-7.0), 200 mM Tris buffer (pH 6.8-9.0), 200 mM potassium phosphate buffer (pH 6.5-8.0) and 200 mM glycine buffer (pH 8.0-12.0) are used as buffers to perform enzyme reactions at the indicated pH at 30° C., thereby determining optimal pH. For example, the oxidases of the invention may have an optimal pH at 5.0-9.0, preferably pH 6.0-8.0. For example, 200 mM acetic acid buffer (pH 3.0-6.0), 200 mM MES-NaOH (pH 6.0-7.0), 200 mM Tris buffer (pH 6.8-9.0), 200 mM potassium phosphate buffer (pH 6.5-8.0) and 200 mM glycine buffer (pH 8.0-12.0) are used as buffers to perform enzyme reactions at the indicated pH at 30° C., thereby determining optimal pH. For example, the oxidases of the invention that have less action on ε-fructosyl lysine may have an optical pH at 5.0-9.0, preferably at 6.0-8.0. Enzyme reaction was monitored in 200 mM acetic acid buffer (pH 3.0-6.0), 200 mM MES-NaOH (pH 6.0-7.0), 200 mM Tris buffer (pH 6.8-9.0), 200 mM potassium phosphate buffer (pH 6.5-8.0) or 200 mM glycine buffer (pH 8.0-12.0) at the indicated pH values at 30° C. […] Enzyme reaction was monitored in 200 mM acetic acid buffer (pH 4.0-6.0), 200 mM MES-NaOH (pH 6.0-7.0), 200 mM Tris buffer (pH 7.0-8.5), 200 mM potassium phosphate buffer (pH 6.0-8.0) or 200 mM glycine buffer (pH 8.0-9.0) at the indicated pH values at 30° C.
# [4] = assay type: physicochemical; settings: for pH of maximum remaining activity: 10 min; for stable pH range: purified oxidase, 30° C. for 10 minutes, remaining activities of 70% (Eupenicillium 60%) or higher
# Protocol: For example, 200 mM acetic acid buffer (pH 3.0-6.0), 200 mM MES-NaOH (pH 6.0-7.0), 200 mM Tris buffer (pH 6.8-9.0), 200 mM potassium phosphate buffer (pH 6.5-8.0) and 200 mM glycine buffer (pH 8.0-12.0) are used as buffers to perform enzyme reactions at the indicated pH at 30° C. for 10 minutes, thereby determining the remaining activities of the oxidases of the invention. For example, the oxidases of the invention may have a stable pH at 5.0-10.0, preferably at 6.0-9.0. For example, 200 mM acetic acid buffer (pH 3.0-6.0), 200 mM MES-NaOH (pH 6.0-7.0), 200 mM Tris buffer (pH 6.8-9.0), 200 mM potassium phosphate buffer (pH 6.5-8.0) and 200 mM glycine buffer (pH 8.0-12.0) are used as buffers to perform enzyme reactions at the indicated pH at 30° C. for 10 minutes, thereby determining the remaining activities of the oxidases of the invention. For example, the oxidases of the invention that have less action on ε-fructosyl lysine may have a stable pH range at 5.0-10.0, preferably at 6.0-9.0. The inventive oxidase was treated with 200 mM acetic acid buffer (pH 3.0-6.0), 200 mM MES-NaOH (pH 6.0-7.0), 200 mM Tris buffer (pH 6.8-9.0), 200 mM potassium phosphate buffer (pH 6.5-8.0) or 200 mM glycine buffer (pH 8.0-12.0) at the indicated pH values at 30° C. for 10 minutes, and its remaining activity was determined. […] The inventive oxidase was treated with 200 mM acetic acid buffer (pH 3.0-6.0), 200 mM MES-NaOH (pH 6.0-7.0), 200 mM Tris buffer (pH 7.0-8.5), 200 mM potassium phosphate buffer (pH 6.0-8.0) or 200 mM glycine buffer (pH 8.0-12.0) at the indicated pH values at 30° C. for 10 minutes, and the remaining activity thereof was monitored.
Molecule,temperature of maximum activity (100%) [1],% relative activity on protease-digested α-glycated hexapeptide [2],pH of maximum activity (most preferable pH) [3],optimum pH (range) [3],pH of maximum remaining activity [4],stable pH range [4],optimum temperature range ([1]; relative activities of 50% or 60% or higher)
"Coniochaeta sp. NISL 9330: fructosyl peptide oxidase produced by Coniochaeta sp. NISL 9330 (FERM BP-7798) with less action on ε-fructosyl lysine; amino acid sequence SEQ ID NO: 1 (protein, listed as Coniochaeta sp.) MTSNRADTRVIVVGGGGTIGSSTALHLVRSGYAPANITVLDTFEIPSAQSAGHDLNKIMGIRLRNKVDLQMSLEARQMWKEDELFQPFFHNTGRMDCEHTPEGIEDLKKQYQALHDAGAGLEKTHAWLDNEDEILSKMPLLQRDQIQGWKAIWSQDGGWLAAAKAINAIGQFLKERGVKFGFGGAGSFKQPLFDDEGTTCIGVETADGTKYYADKVVLAAGAWSPTLVDLEDQCCSKAWVYAHIQLTPEEAAEYKGVPVVYNGEFGFFFEPNEFGVIKVCDEFPGFSRFKEHQPYGAPSPKHISVPRSHAKHPTDTYPDASEVSIKKAIATFLPRFQDKELFNRALCWCTDTADAALLMCEHPKWKNFILATGDSGHSFKILPNVGKHVVELIEGRLPEEMAYQWRWRPGGDALKSRRAAPPKDLADMPGWKHDPKL",around 40 °C,10.0%,7.0 pH,6.0-8.0 pH,~7.0 pH,5.0-9.0 pH,
"Eupenicillium terrenum ATCC 18547: fructosyl peptide oxidase produced by Eupenicillium terrenum ATCC 18547 with less action on ε-fructosyl lysine; amino acid sequence SEQ ID NO: 3 (protein, listed as Eupenicillium terrenum) MAHSRASTKVVVVGGGGTIGSSTALHLIRSGYTPSNITVLDVYKTPSLQSAGHDLNKIMGIRLRNGPDLQLSLESLDMWQNDELFKPFFHQVGMIDCSSSKEGIENLRRKYQTLLDAGIGLEKTNVWLESEDEILAKAPNFTREQVKGWKGLFCTDGGWLAAAKAINAIGIFLQDKGVKFGFGGAGTFQQPLFAADGKTCIGLETTDGTKYFADKVVLAAGAWSPTLVDLEDQCVSKAWVFAHIQLTPKEADAYKNVPVVYDGEYGFFFEPNEYGVIKVCDEFPGFSRFKLHQPYGAASPKMISVPRSHAKHPTDTYPDASEVTIRKAIARFLPEFKDKELFNRTMCWCTDTADANLLICEHPKWKNFILATGDSGHSFKLLPNIGKHVVELLEGSLSQEMAGAWRWRPGGDALRSRRGAPAKDLAEMPGWKHDAHL",around 35 °C,9.5%,7.0 pH,6.0-8.0 pH,8.0 pH,6.0-9.0 pH,25-40 °C
